Test results from paper PMC9239148 (2022).

Tests used:
Assay in all cases: SPR
[1] = molecular target: T1, Recombinant SERPINE1 protein (plasminogen activator inhibitor 1) (human, UniProt P05121 24-402)
[2] = molecular target: T1, Recombinant SERPINE1 protein …; remark: listed apart in the source
[3] = molecular target: T2, Recombinant SERPINA1 protein (alpha-1 antitrypsin) (human, UniProt P01009 25-418)
[4] = molecular target: T3, Recombinant SERPINC1 protein (antithrombin III) (human, UniProt P01008 33-464)
[5] = molecular target: T2, Recombinant SERPINA1 protein (alpha-1 …); remark: listed apart in the source
[6] = molecular target: T3, Recombinant SERPINC1 protein …; remark: listed apart in the source

T1 sequence (P05121 24-402): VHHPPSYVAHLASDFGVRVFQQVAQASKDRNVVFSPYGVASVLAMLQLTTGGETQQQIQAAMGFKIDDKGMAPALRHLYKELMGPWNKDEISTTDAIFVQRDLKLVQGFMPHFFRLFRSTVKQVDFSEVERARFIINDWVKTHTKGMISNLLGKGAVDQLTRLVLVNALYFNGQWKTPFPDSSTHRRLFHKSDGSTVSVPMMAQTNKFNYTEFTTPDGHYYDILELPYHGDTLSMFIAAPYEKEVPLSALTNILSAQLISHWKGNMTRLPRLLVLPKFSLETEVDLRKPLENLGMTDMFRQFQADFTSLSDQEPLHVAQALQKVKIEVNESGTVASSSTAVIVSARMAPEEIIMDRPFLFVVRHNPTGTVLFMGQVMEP
T3 sequence (P01008 33-464): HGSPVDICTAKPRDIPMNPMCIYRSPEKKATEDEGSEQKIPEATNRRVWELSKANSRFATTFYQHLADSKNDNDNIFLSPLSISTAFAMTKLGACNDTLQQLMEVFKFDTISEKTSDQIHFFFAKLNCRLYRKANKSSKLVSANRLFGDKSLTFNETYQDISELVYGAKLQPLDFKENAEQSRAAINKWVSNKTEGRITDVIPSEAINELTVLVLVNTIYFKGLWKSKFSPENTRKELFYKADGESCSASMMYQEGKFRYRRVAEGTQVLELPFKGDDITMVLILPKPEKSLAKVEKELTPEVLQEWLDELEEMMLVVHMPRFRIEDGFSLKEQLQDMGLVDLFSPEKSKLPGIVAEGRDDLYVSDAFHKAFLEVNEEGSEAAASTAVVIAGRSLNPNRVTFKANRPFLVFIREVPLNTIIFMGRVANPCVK
T2 sequence (P01009 25-418): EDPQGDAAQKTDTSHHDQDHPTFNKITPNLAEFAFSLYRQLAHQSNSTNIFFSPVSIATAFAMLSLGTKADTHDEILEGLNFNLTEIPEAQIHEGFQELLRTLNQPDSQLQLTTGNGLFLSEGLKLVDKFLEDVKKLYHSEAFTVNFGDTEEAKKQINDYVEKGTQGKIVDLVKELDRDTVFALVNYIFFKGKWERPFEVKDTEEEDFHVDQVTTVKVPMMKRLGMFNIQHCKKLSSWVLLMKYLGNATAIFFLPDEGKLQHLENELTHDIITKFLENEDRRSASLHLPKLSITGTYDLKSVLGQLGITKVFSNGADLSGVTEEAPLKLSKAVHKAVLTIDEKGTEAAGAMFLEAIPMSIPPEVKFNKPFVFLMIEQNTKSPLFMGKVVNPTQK

Row | Binder | Kd [1] | koff [2] | Kd [3] | Kd [4] | koff [5] | koff [6]
1 | Tissue plasminogen activator (enzyme) SYQVICRDEKTQMIYQQHQSWLRPVLRSNRVEYCWCNSGRAQCHSVPVKSCSEPRCFNGGTCQQALYFSDFVCQCPEGFAGKCCEIDTRATCYEDQGISYRGTWSTAESGAECTNWNSSALAQKPYSGRRPDAIRLGLGNHNYCRNPDRDSKPWCYVFKAGKYSSEFCSTPACSEGNSDCYFGNGSAYRGTHSLTESGASCLPWNSMILIGKVYTAQNPSAQALGLGKHNYCRNPDGDAKPWCHVLKNRRLTWEYCDVPSCSTCGLRQYSQPQFRIKGGLFADIASHPWQAAIFAKHRRSPGERFLCGGILISSCWILSAAHCFQERFPPHHLTVILGRTYRVVPGEEEQKFEVEKYIVHKEFDDDTYDNDIALLQLKSDSSRCAQESSVVRTVCLPPADLQLPDWTECELSGYGKHEALSPFYSERLKEAHVRLYPSSRCTSQHLLNRTVTDNMLCAGDTRSGGPQANLHDACQGDSGGPLVCLNDGRMTLVGIISWGLGCGQKDVPGVYTKVTNYLDWIRDNMRP | 246 nM | 0.00787 s⁻¹ |  |  |  | 
2 | Active recombinant TMPRSS2 (transmembrane serine protease 2) (enzyme) not shown | 9.5 nM | 0.00253 s⁻¹ | 20.8 nM | 17.9 nM | 0.00377 s⁻¹ | 0.00324 s⁻¹
